Earlier results on one substance are cited in article PMC6292179.

pKd: −log10 of the molar value.

For this data set, the target named is IL-18BP (Homo sapiens) (UniProt O95998).
IL-18BP (Homo sapiens), sequence (O95998 31-194): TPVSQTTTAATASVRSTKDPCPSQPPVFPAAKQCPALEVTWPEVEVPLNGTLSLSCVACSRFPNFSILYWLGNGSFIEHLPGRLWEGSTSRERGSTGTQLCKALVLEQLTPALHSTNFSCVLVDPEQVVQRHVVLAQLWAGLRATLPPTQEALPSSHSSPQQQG

IL-18, sequence (Q14116 37-193): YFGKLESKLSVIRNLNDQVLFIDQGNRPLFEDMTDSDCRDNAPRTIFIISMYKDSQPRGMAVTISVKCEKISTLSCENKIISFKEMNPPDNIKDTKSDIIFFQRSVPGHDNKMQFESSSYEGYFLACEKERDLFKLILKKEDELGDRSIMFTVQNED

Regarding IL-18 (from UniProt Q14116), the pKd was 9.40.
